How the values were obtained:
HeLa Kyoto [1] = assay: thermal stability score vs G1/S (z-score of summed log2 fold changes over temperatures); higher = more thermally stable than in G1/S
HeLa Kyoto [2] = assay: solubility change mitosis vs G1/S (difference of NP-40 vs SDS log2 ratios) (log2 ratio difference); higher = more soluble in mitosis
HeLa Kyoto [3] = assay: melting temperature (median over replicates), in situ; higher = more thermally stable
HeLa Kyoto [4] = assay: solubility in G1/S (NP-40 vs SDS abundance) (log2 ratio); higher = more soluble; settings: cell cycle stage: G1/S
[5] = cell cycle stage: early G1 (4.5 h after nocodazole release)
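Throughout, for melting temperature (median over replicates), in situ: HeLa Kyoto cells synchronized by double thymidine or nocodazole block, proteins quantified by TMT10plex mass spectrometry, three independent biological replicates.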
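Throughout, for solubility change mitosis vs G1/S (difference of NP-40 vs SDS log2 ratios): synchronized HeLa Kyoto cells (double thymidine block for G1/S, nocodazole release for mitosis), protein amounts in NP-40 versus SDS lysates quantified by mass spectrometry, three biological replicates.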
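Throughout, for solubility in G1/S (NP-40 vs SDS abundance): HeLa Kyoto cells arrested at G1/S by double thymidine block, proteins quantified by TMT10plex mass spectrometry in mild NP-40 versus SDS extracts, three biological replicates.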
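Throughout, for thermal stability score vs G1/S (z-score of summed log2 fold changes over temperatures): synchronized HeLa Kyoto cells, proteins quantified by TMT10plex mass spectrometry, three biological replicates, mitosis taken 0.5 h after nocodazole release, G1/S directly after double thymidine block.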

Sequence | thermal stability score (HeLa Kyoto [1]; [5]) | thermal stability score (HeLa Kyoto [1]; cell cycle stage: mitosis) | solubility change mitosis (log2) (HeLa Kyoto [2]) | melting temperature (HeLa Kyoto [3]; cell cycle stage: G1/S) [°C] | melting temperature (HeLa Kyoto [3]; cell cycle stage: mitosis) [°C] | solubility in G1/S (log2) (HeLa Kyoto [4])
MYAVYKQAHPPTGLEFSMYCNFFNNSERNLVVAGTSQLYVYRLNRDAEALTKNDRSTEGKAHREKLELAASFSFFGNVMSMASVQLAGAKRDALLLSFKDAKLSVVEYDPGTHDLKTLSLHYFEEPELRDGFVQNVHTPRVRVDPDGRCAAMLVYGTRLVVLPFRRESLAEEHEGLVGEGQRSSFLPSYIIDVRALDEKLLNIIDLQFLHGYYEPTLLILFEPNQTWPGRVAVRQDTCSIVAISLNITQKVHPVIWSLTSLPFDCTQALAVPKPIGGVVVFAVNSLLYLNQSVPPYGVALNSLTTGTTAFPLRTQEGVRITLDCAQATFISYDKMVISLKGGEIYVLTLITDGMRSVRAFHFDKAAASVLTTSMVTMEPGYLFLGSRLGNSLLLKYTEKLQEPPASAVREAADKEEPPSKKKRVDATAGWSAAGKSVPQDEVDEIEVYGSEAQSGTQLATYSFEVCDSILNIGPCANAAVGEPAFLSEEFQNSPEPDLEIVVCSGHGKNGALSVLQKSIRPQVVTTFELPGCYDMWTVIAPVRKEEEDNPKGEGTEQEPSTTPEADDDGRRHGFLILSREDSTMILQTGQEIMELDTSGFATQGPTVFAGNIGDNRYIVQVSPLGIRLLEGVNQLHFIPVDLGAPIVQCAVADPYVVIMSAEGHVTMFLLKSDSYGGRHHRLALHKPPLHHQSKVITLCLYRDLSGMFTTESRLGGARDELGGRSGPEAEGLGSETSPTVDDEEEMLYGDSGSLFSPSKEEARRSSQPPADRDPAPFRAEPTHWCLLVRENGTMEIYQLPDWRLVFLVKNFPVGQRVLVDSSFGQPTTQGEARREEATRQGELPLVKEVLLVALGSRQSRPYLLVHVDQELLIYEAFPHDSQLGQGNLKVRFKKVPHNINFREKKPKPSKKKAEGGGAEEGAGARGRVARFRYFEDIYGYSGVFICGPSPHWLLVTGRGALRLHPMAIDGPVDSFAPFHNVNCPRGFLYFNRQGELRISVLPAYLSYDAPWPVRKIPLRCTAHYVAYHVESKVYAVATSTNTPCARIPRMTGEEKEFETIERDERYIHPQQEAFSIQLISPVSWEAIPNARIELQEWEHVTCMKTVSLRSEETVSGLKGYVAAGTCLMQGEEVTCRGRILIMDVIEVVPEPGQPLTKNKFKVLYEKEQKGPVTALCHCNGHLVSAIGQKIFLWSLRASELTGMAFIDTQLYIHQMISVKNFILAADVMKSISLLRYQEESKTLSLVSRDAKPLEVYSVDFMVDNAQLGFLVSDRDRNLMVYMYLPEAKESFGGMRLLRRADFHVGAHVNTFWRTPCRGATEGLSKKSVVWENKHITWFATLDGGIGLLLPMQEKTYRRLLMLQNALTTMLPHHAGLNPRAFRMLHVDRRTLQNAVRNVLDGELLNRYLYLSTMERSELAKKIGTTPDIILDDLLETDRVTAHF [CPSF1] | -0.361 | 0.307 | 0.129 | 50.3 | 50.6 | -0.464
MYFPSWLSQLYRGLSRPIRRTTQPIWGSLYRSLLQSSQRRIPEFSSFVVRTNTCGELRSSHLGQEVTLCGWIQYRRQNTFLVLRDFDGLVQVIIPQDESAASVKKILCEAPVESVVQVSGTVISRPAGQENPKMPTGEIEIKVKTAELLNACKKLPFEIKNFVKKTEALRLQYRYLDLRSFQMQYNLRLRSQMVMKMREYLCNLHGFVDIETPTLFKRTPGGAKEFLVPSREPGKFYSLPQSPQQFKQLLMVGGLDRYFQVARCYRDEGSRPDRQPEFTQIDIEMSFVDQTGIQSLIEGLLQYSWPNDKDPVVVPFPTMTFAEVLATYGTDKPDTRFGMKIIDISDVFRNTEIGFLQDALSKPHGTVKAICIPEGAKYLKRKDIESIRNFAADHFNQEILPVFLNANRNWNSPVANFIMESQRLELIRLMETQEEDVVLLTAGEHNKACSLLGKLRLECADLLETRGVVLRDPTLFSFLWVVDFPLFLPKEENPRELESAHHPFTAPHPSDIHLLYTEPKKARSQHYDLVLNGNEIGGGSIRIHNAELQRYILATLLKEDVKMLSHLLQALDYGAPPHGGIALGLDRLICLVTGSPSIRDVIAFPKSFRGHDLMSNTPDSVPPEELKPYHIRVSKPTDSKAERAH [DARS2] | -0.868 | 0.237 | -0.114 | 55.5 | 55.9 | 0.144
